Assays:
[1] = target: T1, tyrosyl-DNA phosphodiesterase 1 (Tdp1) (Homo sapiens, UniProt Q9NUW8 1-608); assay: SPR
[2] = target: T1, tyrosyl-DNA phosphodiesterase 1 (Tdp1); assay: SPR; remark: listed apart in the source
[3] = target: T1, tyrosyl-DNA phosphodiesterase 1 (Tdp1); assay: fluorescence anisotropy
[4] = target: T1, tyrosyl-DNA phosphodiesterase 1 (Tdp1); assay: fluorescence anisotropy; remark: listed apart in the source
[5] = target: T1, tyrosyl-DNA phosphodiesterase 1 (Tdp1); assay: competition

T1 sequence (Q9NUW8 whole entry): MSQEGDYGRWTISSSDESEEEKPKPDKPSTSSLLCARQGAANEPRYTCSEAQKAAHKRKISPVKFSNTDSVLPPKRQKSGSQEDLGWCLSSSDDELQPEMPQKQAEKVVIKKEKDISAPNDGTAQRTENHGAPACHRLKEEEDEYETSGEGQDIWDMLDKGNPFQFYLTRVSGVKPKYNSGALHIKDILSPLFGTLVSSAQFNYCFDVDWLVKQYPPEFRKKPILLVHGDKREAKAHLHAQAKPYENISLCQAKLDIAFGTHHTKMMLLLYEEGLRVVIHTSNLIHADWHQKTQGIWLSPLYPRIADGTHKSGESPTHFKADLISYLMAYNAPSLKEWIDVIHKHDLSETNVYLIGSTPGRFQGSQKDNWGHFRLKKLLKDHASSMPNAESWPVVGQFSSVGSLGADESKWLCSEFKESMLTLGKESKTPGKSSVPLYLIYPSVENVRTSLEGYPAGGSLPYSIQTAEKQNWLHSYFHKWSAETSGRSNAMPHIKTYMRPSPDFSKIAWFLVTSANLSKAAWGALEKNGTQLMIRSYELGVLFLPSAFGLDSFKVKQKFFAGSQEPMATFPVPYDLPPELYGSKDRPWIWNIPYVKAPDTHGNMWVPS

Row | Binder | Kd [3] [nM] | further results
1 | GATCTAAAAGACTT (ssDNA, 5'-phosphate; 3'-biotin) [p14B] | – | binding result [1]: no binding
2 | GATCTAAAAGACTT (ssDNA, 5'-biotin; 3'-phosphate) [B14p] | – | Kd [2]: 57 nM
3 | GATCTAAAAGACTTG (ssDNA, 3'-6-FAM via phosphorothioate (non-hydrolyzable)) [15(pS)F] | 2.4 | –
4 | GATCTAAAAGACTT (ssDNA, 5'-6-FAM via phosphodiester; 3'-OH) [F14] | – | Kd [4]: 76.9 nM
5 | GATCTAAAAGACTT (ssDNA, 5'-6-FAM via phosphodiester; 3'-phosphate) [F14p] | 34.1 | –
6 | AAGATCTAAAAGACTTAAGGATCTAAAAGACTTGAAGATCTAAAAGACTT (ssDNA, 3'-phosphate) [50p] | – | binding signal [5]: ~10 fold higher affinity than 14p
7 | GATCTAAAAGACTTG (ssDNA, 5'-6-FAM via phosphodiester; 3'-OH) [F15] | 39.2 | –
8 | GATCTAAAAGACTTG (ssDNA, 5'-6-FAM via phosphorothioate; 3'-OH) [F(pS)15] | 26.3 | –

Reference: paper PMC2853120
